Laboratory results: patent US20240425848

Target: histone H3 trimethylated at lysine 9 (H3K9me3) in native chromatin of Caki-1 cells, P68431

B1: Tn5 (protein)
chain: MITSALHRAADWAKSVFSSAALGDPRRTARLVNVAAQLAKYSGKSITISSEGSKAMQEGAYRFIRNPNVSAEAIRKAGAMQTVKLAQEFPELLAIEDTTSLSYRHQVAEELGKLGSIQDKSRGWWVHSVLLLEATTFRTVGLLHQEWWMRPDDPADADEKESGKWLAAAATSRLRMGSMMSNVIAVCDREADIHAYLQDKLAHNERFVVRSKHPRKDVESGLYLYDHLKNQPELGGYQISIPQKGVVDKRGKRKNRPARKASLSLRSGRITLKQGNITLNAVLAEEINPPKGETPLKWLLLTSEPVESLAQALRVIDIYTHRWRIEEFHKAWKTGAGAERQRMEEPDNLERMVSILSFVAVRLLQLRESFTPPQALRAQGLLKEAEHVESQSAETVLTPDECQLLGYLDKGKRKRKEKAGSLQWAYMAIARLGGFMDSKRTGIASWGALWEGWEALQSKLDGFLAAKDLMAQGIKI
  Ec: global enrichment of the ATAC-seq tagmentation signal over H3K9me3-marked regions, log2(ratio) over genomic Input, Caki-1; subscript printed as 0, first E line of the box: E0= -5.07
  Ec: global enrichment of the ATAC-seq tagmentation signal over H3K9me3-marked regions, log2(ratio) over genomic Input, Caki-1 [Continued) e]: Ec= -5.07
  Mc: modal enrichment of the ATAC-seq tagmentation signal over H3K9me3-marked regions, log2(ratio) over genomic Input, Caki-1; subscript printed as 0, first M line of the box, agrees with the mode of t: M0= -2.19
  Mc: modal enrichment of the ATAC-seq tagmentation signal over H3K9me3-marked regions, log2(ratio) over genomic Input, Caki-1 [Continued) e]: Mc= -2.19
  stated: no tagmentation signal over H3K9me3 ChIP-seq domains (ATAC-seq on permeabilized Caki-1 nuclei): Tn5 track (scale 0-140.7): near zero over the H3K9me3 domains at about 42.4-43.4 and 43.8-44.6 Mbp of Chr. 19; peaks only where the H3K4me3 track has peaks
  stated: no tagmentation signal over H3K9me3 ChIP-seq domains (ATAC-seq, Caki-1): Tn5 track (scale 0-50): clusters of sharp peaks at the positions of the H3K4me3 peaks; near zero at about 59-62 Mbp of Chr.12, where the H3K9me3 and TnH tracks are raised
  stated: no tagmentation signal over H3K9me3 ChIP-seq domains (bulk ATAC-seq with Tn5 alone and scGET-seq pseudo-bulk, Caki-1) [Continued) g]: tn5 and tn5 pseudobulk tracks (scale 0-50 each): flat near 0 at about 33.5-34.7 Mbp and near 0 inside the H3K9me3 domains at about 36.6-37.4 and 38.2-38.9 Mbp of chr1; sharp peaks at the positions of the H3K4me3 peaks
